# Measured values published in patent US20150216948A1, “CYTOCHROME P450 SUICIDE GENE SYSTEM” (priority 2012, published 2015).
# Where two headings read alike, the source gives them in different places.
# Experiments:
# HepG2 cells [1] = test: Half-life of CYP4B1/EGFP fusion proteins after cycloheximide (western blot, FACS); assay type: cell-based, human; conditions: EGFP fusion; for protein half-life: 50 μg/ml cycloheximide, G418-selected HepG2 cells
# Protocol: FIGS. 3 C and D show CYP4B1 stability as analysed by western blotting and by flow cytometry. The studies on protein expression and stability were performed with the rabbit and human CYP4B1/EGFP fusion construction in the lentiviral vector with the additional IRES-neomycin cassette. Half-life analysis was performed by adding 50 μg/ml cycloheximide to the transduced and G418-selected HepG2 cells. Samples were collected at the indicated time points.
# (§1) Next, it was analyzed whether the different activities of the human and the rabbit proteins in processing 4-IPO could be explained by differences in protein half-life. However, as no antibody was available that can detect both CYP4B1 proteins, EGFP fusion constructs were generated. With these constructs, EGFP antibodies can be utilized to visualize and compare the expression levels and the half-lives of the fusion proteins in cells by western blots. EGFP expression can also be used for flow cytometry assessment of the expression levels due to the fluorescent properties of the fusion proteins. 5′- and 3′-fusions of EGFP with the native rabbit P422 and the human P427 CYP4B1 proteins were cloned in LV vectors with an IRES-NEO (NEO=neomycin phosphotransferase cDNA, npt II) and stably expressed in HepG2 cells (FIG. 3 B). For comparison, the corresponding IRES-EGFP constructs were also included, as these vectors had already been used in previous experiments and activity measurements thus already existed. Transduced cells were incubated for 24, 48 and 72 hours with increasing concentration of 4-IPO. Cultures were then harvested, cells stained with propidium iodine and subsequently analyzed for survival of transduced EGFP+ cells by flow cytometry (FIG. 3 A).
# After standard inhibition of de novo protein synthesis by cycloheximide, the half-life of the CYP4B1 proteins in stably transduced and G418-resistant HepG2 cells was assessed by determining the protein expression levels over time either in western blotting or in FACS analysis as EGFP fluorescence. […] For the human native protein (h-S427), the mean fluorescence indicates a short average half-life of only 6 hours.
# HepG2 cells [2] = test: 4-IPO toxicity assay: survival of transduced HepG2 cells by flow cytometry (propidium iodine); assay type: cell-based, human; conditions: for 4-IPO processing activity / cell killing (in words): transduced cells challenged with 4-IPO
# Description: Initially, the serine at position 427 in the human CYP4B1 was mutated back to proline (h-P427), which is present at this position in all CYP4B1 proteins. Additionally a proline to serine exchange was created in the native rabbit CYP4B1 enzyme at the corresponding position 422 (r-P422). To immediately exclude the possibility that the different activities between human and the rabbit protein isoforms are simply due to differences in mRNA stability, the human CYP4B1 cDNA (SEQ ID NO.: 2) was optimized for human-codon usage (SEQ ID NO.: 3) by de novo synthesis with silent mutagenesis of the cDNA, thus removing internal TATA-boxes, instability motives, RNA secondary structures and (cryptic) splice donor/acceptor sites and ensuring an average GC content of around 60%. All cDNAs were cloned into the same lentiviral (LV) HIV1-based expression vector and LV supernatants produced by plasmid transfection in HEK293T cells. Subsequently, the two rabbit and the four human cDNAs were stably expressed in the human liver cell line HepG2. Stably expressing transduced cells were challenged after five days with increasing concentrations of 4-IPO for 24, 48 and 72 hours and then the survival of cells analyzed by flow cytometry using propidium iodine for live/dead cell discrimination.
# as §1
# primary human T-cells = test: 4-IPO toxicity in transduced primary T-cells; assay type: cell-based; conditions: 24 h and 72 h exposure to increasing doses of 4-IPO, EGFP fusions, FIG. 7 B
# Description: Compared to the HepG2 liver cells, primary T-cells might not provide an optimal environment for the function of P450 cytochromes (although the necessary reductase is ubiquitously expressed) and the infection of primary T-cells is considerably more complex.
# The T cells were isolated by Ficoll and stimulated with CD3, CD28 and IL2 for 3 days before they were infected with lentiviral vectors using fibronectin. For optimal toxicity in T cells, the suicide genes were not expressed as EGFP fusions proteins but a IRES-EGFP-WPRO vector construct was used. […] However, after 24 hours over 70% of the transgenic T cells were eliminated by CYP4B1 P427 mut12. […] The determination of the virus titer was based on the titration of the reference cell line HT1080.
# [3] = relative to rabbit CYP4B1, cited from earlier work
molecule,measurement,setting,value
"r-P422: wildtype rabbit CYP4B1 enzyme (protein, listed as Oryctolagus cuniculus) MLGFLSRLGLWASGLILILGFLKLLRLLLRRQRLARAMDSFPGPPTHWLFGHALEIQKTGSLDKVVTWTQQFPYAHPLWVGQFIGFLNIYEPDYAKAVYSRGDPKAPDVYDFFLQWIGKGLLVLDGPKWFQHRKLLTPGFHYDVLKPYVAIFADSTRIMLEKWEKKACEGKSFDIFSDVGHMALDTLMKCTFGKGDSGLNHRDSSYYVAVSELTLLMQQRIDSFQYHNDFIYWLTPHGRRFLRACRAAHDHTDRVIRQRKAALQDEKEREKIQNRRHLDFLDILLDVRGESGVQLSDTDLRAEVDTFMFEGHDTTTSGISWFLYCMALYPEHQQRCREEVREILGDQDSFQWEDLAKMTYLTMCMKECFRLYPPVPQVYRQLSKPVSFVDGRSLPAGSLISLHIYALHRNSDVWPDPEVFDPLRFSPENSSGRHPYAFIPFSAGPRNCIGQQFAMNEMKVVTALCLLRFEFSVDPLRLPIKLPQLVLRSKNGIHLYLKPLGPK",protein stability (in words),"HepG2 cells [1]; cycloheximide, HepG2 cells",strongest protein stability
same,transduced HepG2 cells eliminated / dead,"HepG2 cells [2]; after 24 hours of 4-IPO treatment, FIG. 2",over 95%
same,killing of primary T-cells with 4-IPO (in words),primary human T-cells,more active than the native P427 and the human codon-optimized P427 CYP4B1 enzymes
"h-S427: native human CYP4B1 protein with serine at position 427 (protein, listed as Homo sapiens) MVPSFLSLSFSSLGLWASGLILVLGFLKLIHLLLRRQTLAKAMDKFPGPPTHWLFGHALEIQETGSLDKVVSWAHQFPYAHPLWFGQFIGFLNIYEPDYAKAVYSRGDPKAPDVYDFFLQWIGRGLLVLEGPKWLQHRKLLTPGFHYDVLKPYVAVFTESTRIMLDKWEEKAREGKSFDIFCDVGHMALNTLMKCTFGRGDTGLGHRDSSYYLAVSDLTLLMQQRLVSFQYHNDFIYWLTPHGRRFLRACQVAHDHTDQVIRERKAALQDEKVRKKIQNRRHLDFLDILLGARDEDDIKLSDADLRAEVDTFMFEGHDTTTSGISWFLYCMALYPEHQHRCREEVREILGDQDFFQWDDLGKMTYLTMCIKESFRLYPPVPQVYRQLSKPVTFVDGRSLPAGSLISMHIYALHRNSAVWPDPEVFDSLRFSTENASKRHPFAFMPFSAGPRNCIGQQFAMSEMKVVTAMCLLRFEFSLDPSRLPIKMPQLVLRSKNGFHLHLKPLGPGSGK",protein half-life,HepG2 cells [1],6 h
same,4-IPO processing activity / cell killing (in words),HepG2 cells [2]; listed as native CYP4B1 protein,comparable to the survival rate of non-transduced control cells
same,4-IPO processing activity / cell killing (in words),HepG2 cells [2]; listed as native human CYP4B1 S427 protein,cannot process 4-IPO at all
same,activity to activate 4-IPO compared to the rabbit CYP4B1,[3],> 1%
same,activity to activate 4-IPO compared to the rabbit CYP4B1,[3]; listed as human isoform,≤ 1%
h-P427: human CYP4B1 with serine at position 427 mutated back to proline (protein) MVPSFLSLSFSSLGLWASGLILVLGFLKLIHLLLRRQTLAKAMDKFPGPPTHWLFGHALEIQETGSLDKVVSWAHQFPYAHPLWFGQFIGFLNIYEPDYAKAVYSRGDPKAPDVYDFFLQWIGKGLLVLDGPKWFQHRKLLTPGFHYDVLKPYVAIFADSTRIMLEKWEKKACEGKSFDIFSDVGHMALDTLMKCTFGKGDSGLNHRDSSYYVAVSELTLLMQQRIDSFQYHNDFIYWLTPHGRRFLRACQVAHDHTDQVIRERKAALQDEKVRKKIQNRRHLDFLDILLGARDEDDIKLSDADLRAEVDTFMFEGHDTTTSGISWFLYCMALYPEHQHRCREEVREILGDQDFFQWDDLGKMTYLTMCIKESFRLYPPVPQVYRQLSKPVTFVDGRSLPAGSLISMHIYALHRNSAVWPDPEVFDPLRFSTENASKRHPFAFMPFSAGPRNCIGQQFAMSEMKVVTAMCLLRFEFSLDPSRLPIKMPQLVLRSKNGFHLHLKPLGPGSGK,protein half-life,HepG2 cells [1],20 h
same,4-IPO processing activity / cell killing (in words),HepG2 cells [2],rendered this enzyme active for processing 4-IPO
same,reduction in cell survival rates,"HepG2 cells [2]; transduced cells with 4-IPO, FIG. 2",about 50%
same,cell survival rates upon administration of 4-IPO,"HepG2 cells [2]; transduced cells, FIG. 2",about 45%
same,killing of primary T-cells with 4-IPO (in words),primary human T-cells,can be killed within three days
